According to US20220193237A1 (Bristol-Myers Squibb, published 2022):

Key:
[1] = biological target: T1, human CTLA-4 on 58 α-β-CTLA-4/CD3 ζ cells (human; mouse (mCD3ζ)); assay: flow cytometry (GMFI), full-length IgG on 58 α-β-CTLA-4/CD3 ζ cells, pH 6.3
T1 construct: also called 58αβ-hCTLA4/mCD3ζ cells; 58αβ-CTLA4/mCD3ζ cells

[2] = biological target: T1, human CTLA-4 on 58 α-β-CTLA-4/CD3 ζ …; assay: flow cytometry (GMFI), full-length IgG on 58 α-β-CTLA-4/CD3 ζ cells, pH 6.6
[3] = biological target: T2, monomeric human CTLA-4 (human, UniProt P16410 36-161, limits assumed); assay: SPR, captured Fab, pH 6.0
T2 construct: Soluble monomeric analyte in SPR; also called huCTLA-4
T2 sequence: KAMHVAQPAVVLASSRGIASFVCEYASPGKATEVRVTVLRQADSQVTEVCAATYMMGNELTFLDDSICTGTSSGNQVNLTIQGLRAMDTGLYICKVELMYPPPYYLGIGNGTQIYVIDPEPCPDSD
Description: (§1) Unless otherwise indicated, experiments were performed with a BIACORE® SPR surface plasmon resonance spectrometer (Biacore AB, Uppsala, Sweden). Antibodies were tested as monovalent Fab fragments to simplify analysis.
(§2) Monomeric human CTLA-4 was flowed as analyte with up to 2 μM top concentration. Between cycles, the capture surface was regenerated with 75 mM phosphoric acid. Experiments were run on a BIACORE® T200 instrument at 37° C. Running buffers were HEPES buffered saline for pH 7.4 experiments and Bis-Tris buffered saline for lower pH experiments. […] Double referenced sensorgrams were fitted to a 1:1 Langmuir binding model with mass transport to determine equilibrium dissociation constants (KD), as well as association (kₐ) and dissociation (kd) rate constants where appropriate.

[4] = biological target: T2, monomeric human CTLA-4; assay: SPR, captured Fab, pH 6.0; remark: listed apart in the source
Description: (§3) Binding of selected variants to human CTLA-4 was determined essentially as described in Example 3. […] Nomenclature and sequences for these antibodies is provided at Tables 6 and 7, and in the sequence listing as summarized at Table 8.
as §2

[5] = biological target: T2, monomeric human CTLA-4; assay: SPR, captured Fab, pH 7.4
Description: as §3, §2

[6] = biological target: T2, monomeric human CTLA-4; assay: SPR, captured Fab, pH 6.0 vs 7.4
Description: as §1, §2

[7] = biological target: T2, monomeric human CTLA-4; assay: SPR, captured Fab, pH 7.4; remark: listed apart in the source
Description: as §1, §2

[8] = biological target: T2, monomeric human CTLA-4; assay: SPR, captured Fab, pH 6.0 vs 7.4; remark: listed apart in the source
Description: as §3, §2

[9] = biological target: T2, monomeric human CTLA-4; assay: SPR, captured Fab, pH 7.4; remark: listed apart in the source
Description: (§4) See Example 3. Antibodies were tested as monovalent Fab fragments to simplify analysis.
as §2

[10] = biological target: T2, monomeric human CTLA-4; assay: SPR, captured Fab, pH 7.4, second experiment
Description: as §4, §2

[11] = biological target: T2, monomeric human CTLA-4; assay: SPR, captured Fab, first experiment of Table 3
Description: as §4, §2

[12] = biological target: T2, monomeric human CTLA-4; assay: SPR, captured Fab, second experiment of Table 3
Description: as §4, §2

[13] = biological target: T2, monomeric human CTLA-4; assay: SPR, captured Fab, pH 6.0 vs 7.4; remark: listed apart in the source
Description: as §4, §2

[14] = biological target: T2, monomeric human CTLA-4; assay: SPR, pH 6.0 and pH 7.5 (FIG. 6)
Description: as §1, §2

[15] = biological target: T2, monomeric human CTLA-4; assay: SPR, captured Fab, pH 6.0, second experiment
Description: as §4, §2

[16] = biological target: T2, monomeric human CTLA-4; assay: SPR, captured Fab, pH 6.0 vs 7.4, second experiment
Description: as §4, §2

[17] = biological target: T2, monomeric human CTLA-4; assay: SPR, captured Fab, pH 6.0; remark: listed apart in the source
Description: as §4, §2

B1: ipi.95 (full-length IgG) (antibody, V domains shown)
VH: QVQLVESGGGVVQPGRSLRLSCAASGFTFSHYTMHWVRQAPGKGLEWVTFISYDGHNKYYADSVKGRFTISRDNSKNTLYLQMNSLRAEDTAIYYCARTGWLGPFDYWGQGTLVTVSS
VL: EIVLTQSPGTLSLSPGERATLSCRASQEVGDSELAWYQQKPGQAPRLLIYGAFSRATGIPDRFSGSGSGTDFTLTISRLEPEDFAVYYCQQYGSSPWTFGQGTKVEIKR
notes: Full-length bivalent IgG (human IgG1); heavy chain entry is without the C-terminal lysine
Q: B1 was tested. Which “EC50 (read off the curve)” value [1] did it give?
A: ~1 nM

Q: What about the “EC50 (read off the curve)” value [2] of the same binder?
A: ~1 nM

B2: ipi.2 Fab (Fab, V domains shown)
VH: QVQLVESGGGVVQPGRSLRLSCAASGFTFSSYTMHWVRQAPGKGLEWVTFISYDGNHKYYADSVKGRFTISRDNSKNTLYLQMNSLRAEDTAIYYCARTGWLGPFDYWGQGTLVTVSS
VL: not shown
notes: Tested as monovalent Fab; also called N56H (Kabat)
Q: Which results are given for B2?
A: Kd [3]: 13 nM; koff [3]: 0.0065 s⁻¹; kon [3]: 490000 M⁻¹ s⁻¹; Kd [4]: 6.8 nM; kon [4]: 1.2e+06 M⁻¹ s⁻¹; t1/2 [4]: 1.38 min; Kd [5]: 5.8 nM; kon [5]: 880000 M⁻¹ s⁻¹; t1/2 [5]: 2.27 min; KD 7.4/6 (APBP) [6]: 0.8; Kd [7]: 16 nM; koff [7]: 0.011 s⁻¹; kon [7]: 670000 M⁻¹ s⁻¹; KD 7.4/6 (APBP) [8]: 0.9; ka 6/7.4 [8]: 1.4; t1/2 6/7.4 [8]: 0.6

B3: ipi.25 Fab (Fab, V domains shown)
VH: QVQLVESGGGVVQPGRSLRLSCAASGFTFSSYTMHWVRQAPGKGLEWVTFISYDGNNKYYADSVKGRFTISRDNSKNTLYLQMNSLRAEDTAIYYCARTGWLGPFDYWGQGTLVTVSS
VL: not shown
notes: Tested as monovalent Fab; also called LCDR1 S28E/S31D; LCDR1 S27aE/S30D (Kabat)
Q: What does the source list for B3?
A: Kd [9]: 25 nM; koff [9]: 0.018 s⁻¹; kon [9]: 720000 M⁻¹ s⁻¹; Kd [10]: 37 nM; koff [10]: 0.017 s⁻¹; kon [10]: 460000 M⁻¹ s⁻¹; ratio of KD (7.4/6.0) normalized to the ratio of ipilimumab [11]: 4; Kd [4]: 6.2 nM; kon [4]: 1.2e+06 M⁻¹ s⁻¹; t1/2 [4]: 1.5 min; ratio of KD (7.4/6.0) normalized to the ratio of ipilimumab [12]: 6.3; KD 7.4/6 (APBP) [13]: 4; ka 6/7.4 [13]: 1.7; kd 7.4/6 [13]: 2.3; CAPBP (ratio of KD normalized to ipilimumab) [14]: 6.3; Kd [5]: 25 nM; kon [5]: 720000 M⁻¹ s⁻¹; t1/2 [5]: 0.65 min; Kd [15]: 7.4 nM; koff [15]: 0.0074 s⁻¹; kon [15]: 1e+06 M⁻¹ s⁻¹; KD 7.4/6 (APBP) [16]: 5; ka 6/7.4 [16]: 2.2; kd 7.4/6 [16]: 2.3; Kd [17]: 6.2 nM; koff [17]: 0.0077 s⁻¹; kon [17]: 1.2e+06 M⁻¹ s⁻¹; KD 7.4/6 (APBP) [8]: 4.1; ka 6/7.4 [8]: 1.7; t1/2 6/7.4 [8]: 2.4
